Test results taken from patent US20260242489A1 (HUAHUI HEALTH, published 2026).
Like-named read-outs stand apart in the source and are kept apart here.

Assays:
[1] = molecular target: T1, mEGFR ECR (His6-Avi-tagged) (mouse, UniProt Q01279 25-644); test: ELISA: mEGFR ECR on plate, IgG1 titrated, anti-hFc-HRP; EC50 at pH 7.4 over EC50 at pH 6.5 [table]
T1 construct: also called mouse EGFR; not shown: His6-Avi tag

[2] = molecular target: T1, mEGFR ECR (His6-Avi-tagged); test: ELISA: mEGFR ECR on plate, IgG1 titrated, anti-hFc-HRP; pH 6.5 [table]
[3] = molecular target: T2, hEGFR ECR-His6-Avi-Biotin (human, UniProt P00533 25-642, biotinylated on the Avi tag using BirA ligase); test: ELISA: antibody coated on plate, hEGFR ECR titrated (Log[Ag] nM), detected through its His tag; pH not given [table]
T2 construct: also called WT hEGFR ECR; human EGFR ECD; not shown: His6-Avi tag

[4] = molecular target: T1, mEGFR ECR (His6-Avi-tagged); test: IgG1 ELISA at pH 6.5, mEGFR ECR against hEGFR ECR
[5] = molecular target: T2, hEGFR ECR-His6-Avi-Biotin; test: ELISA: hEGFR ECR on plate, IgG1 titrated, anti-hFc-HRP; pH 7.4 [table]
[6] = molecular target: T2, hEGFR ECR-His6-Avi-Biotin; test: ELISA: hEGFR ECR on plate, IgG1 titrated, anti-hFc-HRP; pH 6.5 [table]
[7] = molecular target: T2, hEGFR ECR-His6-Avi-Biotin; test: ELISA: G5V2 IgG1 coated on plate, antigen titrated, HRP-labeled His-Tag antibody; pH 7.4
[8] = molecular target: T3, hEGFR ECR H370A (human, UniProt P00533 25-642); test: as above
[9] = molecular target: T2, hEGFR ECR-His6-Avi-Biotin; test: as above; remark: listed apart in the source
[10] = molecular target: T2, hEGFR ECR-His6-Avi-Biotin; test: ELISA: hEGFR ECR on plate, IgG1 titrated, anti-hFc-HRP; pH 7.4 [table]; remark: listed apart in the source
[11] = molecular target: human EGFR domain III (human) (UniProt P00533); test: ELISA: antibody coated on plate, hEGFR domain III titrated (Log[Ag] nM), detected through its His tag; pH not given [table]
[12] = molecular target: T2, hEGFR ECR-His6-Avi-Biotin; test: ELISA: hEGFR ECR on plate, IgG1 titrated, anti-hFc-HRP; EC50 at pH 7.4 over EC50 at pH 6.5 [table]
[13] = molecular target: T2, hEGFR ECR-His6-Avi-Biotin; test: ELISA: hEGFR ECR on plate, IgG1 titrated, anti-hFc-HRP; pH 6.5 [table]; remark: listed apart in the source
[14] = molecular target: T1, mEGFR ECR (His6-Avi-tagged); test: ELISA: mEGFR ECR on plate, IgG1 titrated, anti-hFc-HRP; pH 7.4 [table]
[15] = molecular target: T2, hEGFR ECR-His6-Avi-Biotin; test: ELISA: hEGFR ECR on plate, IgG1 titrated, anti-hFc-HRP; EC50 at pH 7.4 over EC50 at pH 6.5 [table]; remark: listed apart in the source
[16] = molecular target: T3, hEGFR ECR H370A; test: ELISA: hEGFR ECR H370A on plate, IgG1 titrated, anti-hFc-HRP; pH 7.4 [table]
[17] = molecular target: T2, hEGFR ECR-His6-Avi-Biotin; test: ELISA: WT hEGFR ECR on plate, IgG1 titrated, anti-hFc-HRP; pH 6.5 [table]
[18] = molecular target: T3, hEGFR ECR H370A; test: ELISA: hEGFR ECR H370A on plate, IgG1 titrated, anti-hFc-HRP; pH 6.5 [table]
[19] = molecular target: T3, hEGFR ECR H370A; test: IgG1 ELISA, pH 6.5 and pH 7.4 (EC50 ratio pH 7.4/pH 6.5)
[20] = molecular target: T2, hEGFR ECR-His6-Avi-Biotin; test: ELISA: WT hEGFR ECR on plate, IgG1 titrated, anti-hFc-HRP; EC50 at pH 7.4 over EC50 at pH 6.5 [table]
[21] = molecular target: hEGFR ECR H433A (human, UniProt P00533 25-642); test: ELISA: hEGFR ECR H433A on plate, IgG1 titrated, anti-hFc-HRP; pH 6.5 and pH 7.4
[22] = molecular target: T2, hEGFR ECR-His6-Avi-Biotin; test: competition ELISA: hEGFR ECR on plate, IgG1 titrated in a mixture with EGF-mFc, bound EGF-mFc detected with anti-mFc-HRP; pH 6.0 [left panel]
[23] = molecular target: T2, hEGFR ECR-His6-Avi-Biotin; test: ELISA: hEGFR ECR on plate, IgG1 titrated, anti-hFc-HRP; pH 7.4 [left panel]
[24] = molecular target: T2, hEGFR ECR-His6-Avi-Biotin; test: ELISA: WT hEGFR ECR on plate, IgG1 titrated, anti-hFc-HRP; pH 7.4 [table]
[25] = molecular target: T3, hEGFR ECR H370A; test: ELISA: hEGFR ECR H370A on plate, IgG1 titrated, anti-hFc-HRP; EC50 at pH 7.4 over EC50 at pH 6.5 [table]
[26] = molecular target: T2, hEGFR ECR-His6-Avi-Biotin; test: ELISA: hEGFR ECR on plate, IgG1 titrated, anti-hFc-HRP; pH 6.0 [left panel]
[27] = molecular target: T2, hEGFR ECR-His6-Avi-Biotin; test: phage ELISA: hEGFR ECR on plate, phage display Fab titrated, anti-M13-HRP; EC50 at pH 7.4 over EC50 at pH 6.5 [table]
[28] = molecular target: T2, hEGFR ECR-His6-Avi-Biotin; test: phage display Fab ELISA on hEGFR ECR
[29] = molecular target: T2, hEGFR ECR-His6-Avi-Biotin; test: phage display Fab ELISA on hEGFR ECR, pH 6.5 and pH 7.4
[30] = molecular target: T2, hEGFR ECR-His6-Avi-Biotin; test: phage display Fab ELISA on hEGFR ECR, pH 6.5

B1: G5V2 (human IgG1 form) (antibody, V domains shown)
VH: QVQLVQSGAEVKRPGSSVKVSCKASGGISDGSAISWVRQAPGQGLEWMGGIYFFNGNTNYAQKFQGRVTITADESTSTAYMELSSLRSEDTAVYYCARDSSLGYYDYFDYWGQGTLVTVSS
VL: QPVLTQPPSVSAAPGQTARITCGGNNIGEKYVQWYQQRPGQAPVLVIYYDDDRPSGIPERFSGSNSGNTAALTINSVEAGDEADYYCQAWDDYDPVVFGGGTQLTVLG
For B1, the “EC50 ratio (pH 7.4/pH 6.5)” value [1] was 1.24, the EC50 [2] was 37 pM and the EC50 [3] was 1240 pM. The “EC50 ratio, mEGFR/hEGFR (pH 6.5)” value [4] was 1.23, the EC50 [5] was 31 pM and the EC50 [6] was 502 pM. The “EC50 (read off the curve)” value [7] was roughly 2000 pM, the “EC50 (read off the curve)” value [8] was roughly 3000 pM and the “EC50 (read off the curve)” value [9] was roughly 3000 pM. The EC50 [10] was 595 pM, the EC50 [11] was 2370 pM and the “EC50 ratio (pH 7.4/pH 6.5)” value [12] was 1.03. For the same binder, the EC50 [13] was 30 pM, the EC50 [14] was 46 pM and the “EC50 ratio (pH 7.4/pH 6.5)” value [15] was 1.19.

B2: 14C07 (full-length human IgG1 form) (antibody, V domains shown)
VH: QVQLVQSGAEVKRPGSSVKVSCKASGGTFSSYAISWVRQAPGQGLEWMGGIIPIFGTANYAQKFQGRVTITADESTSTAYMELSSLRSEDTAVYYCARDSSSGWYDYFDYWGQGTLVTVSS
VL: QPVLTQPPSVSAAPGAMARITCESPDIGSKSVQWYQQRPGQAPILVIYYDDDRPSGIPERFSGSNSGNTAALTINWVEPEDEADYYCQAWDDSDPVVFGGGTQLTVLG
For B2, the EC50 [16] was 462 pM, the “EC50 ratio (pH 7.4/pH 6.5)” value [1] was 6.52 and the EC50 [2] was 419 pM. The EC50 [17] was 301 pM, the EC50 [18] was 433 pM and the “EC50 ratio, mEGFR/hEGFR (pH 6.5)” value [4] was 8.73. The “fold weaker pH-dependency of binding than with WT EGFR ECR” value [19] was greater than 2 fold, the “EC50 ratio (pH 7.4/pH 6.5)” value [20] was 2.72 and the EC50 [5] was 155 pM. For the same binder, the binding result [21] was “no binding (tested: 100 nM (Log[Ab] 2))”, the IC50 [22] was 29000 pM and the EC50 [23] was 662 pM. For the same binder, the EC50 [24] was 818 pM, the “EC50 ratio (pH 7.4/pH 6.5)” value [12] was 3.23 and the EC50 [13] was 48 pM. For the same binder, the “EC50 ratio (pH 7.4/pH 6.5)” value [25] was 1.07, the EC50 [14] was 2730 pM and the EC50 [26] was 20 pM.

B3: G5V2 Y32E (phage display Fab form) (Fab, V domains shown)
VH: B1 VH
VL: QPVLTQPPSVSAAPGQTARITCGGNNIGEKEVQWYQQRPGQAPVLVIYYDDDRPSGIPERFSGSNSGNTAALTINSVEAGDEADYYCQAWDDYDPVVFGGGTQLTVL
notes: Y32 is Kabat numbering
With B3 the “EC50 ratio (pH 7.4/pH 6.5)” value [27] was 15.6, the “fold higher binding affinity over G5V2 Y32D” value [28] was roughly 3 fold and the “fold higher pH-dependent binding over WT G5V2” value [29] was roughly 13 fold. For the same binder, the “fold decrease of binding affinity at pH 6.5 against G5V2” value [30] was roughly 8 fold.
